In the nanobody polyreactivity screen of Harvey et al. (2022):

Assay: yeast display, Sf9 membrane polyspecificity reagent, FACS + sequencing; frameworks hold sequencing errors
In short: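 Galactose-induced (36–48 hours) yeast carrying a synthetic nanobody display library were exposed to 10% biotinylated, detergent-solubilized Sf9 membrane reagent at 4 °C for 1 hour. FACS followed streptavidin microbead enrichment, using low and high (top ~1%) gates for expression (anti-HA) and reagent binding (streptavidin). Colony PCR, MiSeq 2 × 250 sequencing and CDR-length filtering followed. Labels for polyreactivity reflect the gate of origin.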

Sequence	polyreactivity (PSR sort gate)
QVQIVESGGGLVQAGGSLRLSCAASGFIIGKYTMGWYRQAPGKEREFVAAIRRSGASTYYADSVKGRFTISRDNAKNTVYLQMNSLKPEDTAVYYCSQAGYSPVYGYWGQGTQVTVSS	high polyreactivity
QVQIVESGGGLVQAGGSLRLSCAASGIIFDGYAMGWYRQAPGKERELVAGITIGDITYYADSVKGRFTISRDNAKITVYLQMNSLKPEDTAVYYCAADSYYYQTAYDYWGQGTQVTVSS	low polyreactivity
QVQIVESGGGLVQAGGSLRLSCAASGLTFYQNAMGWYRQAPGKERELVAAITRSGGSTYYADSVKGRFTISRDNAKNTVYLQMNSLKPEDTAVYYCAARGGLSRRYEYWGQGTQVTVSS	high polyreactivity
QVQIVESGGGLVQAGGSLRLSCAASGRIFAGYAIGWYRQAPGKERELVAAISSGGSTYYADSVKGRFTISRDNAKNTVYLQMNSLKPEDTAVYYCSAVGRRVYGTKFYYWGQGTQVTFSS	high polyreactivity
QVQIVESGGGLVQAGGSLRLSCAASGRIFDYYTMGWYRQAPGKERELVASISDGGRTNYADSVKGRFTISRDNAKNTVYLQMNSLKPEDTAVYYCAADFAPVAFDYWGQGTQVTVSS	low polyreactivity
QVQIVESGGGLVQAGGSLRLSCAASGRIFFVNTKGWYRQAPGKERELVATISWSGGSTYYADSVKGRFTISRDNAKNTVYLQMNSLKPEDTAVYYCNRSLTGYDELGYPVPYTYDYWGQGTQVTVSS	low polyreactivity
QVQIVESGGGLVQAGGSLRLSCAASGRIFLPYAMGWYRQAPGKERELVAAITQSGVITSYADSVKGRFTISRDNAKNTVYLQMNSLKPEDTAVYYCATVRTVIVFRFPYSYGYWGQGTQVTVSS	high polyreactivity
QVQIVESGGGLVQAGGSLRLSCAASGRIRSYAMGWYRQAPGKERELVAAISSRGGSTYYADSVKGRFTISRDNAKNTVYLLMNSLKPEDTAVYYCAKGGYCGQGTQVTVSS	high polyreactivity
QVQIVESGGGLVQAGGSLRLSCAASGRTFGVYAMGWYRQAPAKESTYYADSVKGRFTISRDNAKNTVYLQMNSLKPEDTAVYYCNARGGFGYITMDYWGQGTQVTVSS	low polyreactivity
QVQIVESGGGLVQAGGSLRLSCAASGRTFWSYAMVWYRPAPGKEWELVATIKDSDGSTYADSVKGRFKISRDNAKNTVYLQMNSLKPEDTAVYYWIAKTRAGYYFGYGYWGQVTQVTVSS	low polyreactivity
QVQIVESGGGLVQAGGSLRLSCAASGRTLDVYAMGWDRQAPGKERELVARITSGGSTNYADSVKGRFTISRDNAKNTVYLQMNSLKPEDTAVYYCNAVVYPRPYTRPRYRYDYWGQGTQVTVSS	high polyreactivity
QVQIVESGGGLVQAGGSLRLSCAASGRTVKFYAMGWYRQAPGKERELVARITSNSGSTYYADSVKGRFTISRDNAKNTVYLQMNSLKPEDTAVYYCAARGRYRQFNYWGQGTQVTVSS	high polyreactivity
QVQIVESGGGLVQAGGSLRLSCAASGRTVVYNSMGWYRQAPGKERELVAAITRSGDSSYYADSVKGRFSISRDNAKNPVYLQMNSLKPEDTAVYYCNAVSKRYWLMDYWGQGTQVTVSS	high polyreactivity
QVQIVESGGGLVQAGGSLRLSCAASGSIFFAYAMGSYRQAPGKERELVAAITGSGGSTYADSVKGRFTISRDNAKNTVYVQMNSLKPEDTAVYYCAKDHYYYPYKRLFVGHEYWGQGTQVTVSS	low polyreactivity
QVQIVESGGGLVQAGGSLRLSCAASGSIFPINAMGWYRQAPGKERELVAVITSGGGGTYYADCVKGRYTISRDNAKNTVYLQMNSLKPEDPAGYYCAKRLSRKWQKFGYWGQGTQVTVSS	low polyreactivity
QVQIVESGGGLVQAGGSLRLSCAASGSIFRGYAKGWYRQAPGKERELVAAITQRAGSTYYADSVKGRFTISRDNAKNTVYLQMNSLKPEDTAVYYCAADVFYVFLHRVWYNYWGQGTQVTVSS	low polyreactivity
QVQIVESGGGLVQAGGSLRLSCAASGSIFRSYAMGWYRQAPGKERELVAAITSSSGSTYYADSVKGRFTISRDNAKNTVYLQMNSLKPEDTAVYSCAAGSPRRYRYDYWGQGTQVTVSS	high polyreactivity
QVQIVESGGGLVQAGGSLRLSCAASGSIFRYNAMGWYRQARGKERELVAAITSGDSTYYADSVKGRFTISRDNAKNTVYLQMNSLKPEDTAVYYCAVTTWANTQWEEYWGHGTQVTVSS	low polyreactivity
QVQIVESGGGLVQAGGSLRLSCAASGSISVANAMGWYRQAPGKERELVAAITDSGDDTYYADSVKGRFTISRDNAKNTVYFQMNSLKPEDTELYYCAVEAWSVPPYDYWGQGTQVTVSS	low polyreactivity
QVQIVESGGGLVQAGGSLRLSCAASGSSFTLYALGWYRQAPGKERELVAAISWSTTSTYYADSVKGRFTISRDNAKNTVYLQMNSLKPEDTAVYYCNARHWPLAYEYWGQGTQVTVSS	high polyreactivity
QVQIVESGGGLVQAGGSLRLSCAASGSTFAYYTMGWYRQAPGKDRELVAAISASGGSTYYADSVKGRFTISRDNGKNTVYLQMNCLKPEVSEVYYCNAESYLTGWWVDYWGQGSQVTVSS	low polyreactivity

Sequence	polyreactivity (PSR sort gate)
QVQIVESGGGLVQAGGSLRLSCAASGSTFGGYVMGWYRQAPGKERELVAAIRWRTDSTYYADSVKGRFTISRDNAKNTVYLQMNSLKPEDTAVYYCAAPRGTRVGSHLYYWGQGTQVTVSS	high polyreactivity
QVQIVESGGGLVQAGGSLRLSCAASGSTFPTYAMGRYRQAPGKERELVAAITSGSGTNTYYADSVKGRFTISRDNAKNTVYLQMNSLKPEDTAVYYCAKSFRKKYGWGQGTQVTVSS	high polyreactivity
QVQIVESGGGLVQAGGSLRLSCAASGSTFPYNAMVWYRKEPGKERELVAVITTVGSTYYADSVKGRFTISRDNAKNTVYLQMNSLKPEDTAVYYCAAANTQSPGYDYWGQGTQVTVSS	low polyreactivity
QVQIVESGGGLVQAGGSLRLSCAASGSTFTRYAMGWYRQAPGKERELVAAISRTGGSRTYYADSVNGRFTISRDNAKNTVYLQMNCLKPEDTAVYYCAKGYWRYLGFLYFFPARDYWGQGTQVTVSS	high polyreactivity
QVQIVESGGGLVQAGGSLRLSCAASGSTFYGYAMGWYRQAPGKERELVAVINYRGDRTYFADSVKGRFTISRDNAKNTVYLQMNSLKPEDTAVYYCAARYRVYYLAGYEYWGQGTQVTVSS	high polyreactivity
QVQIVESGGGLVQAGGSLRLSCAASGSTINYNAMGWYRQAPGKERELVAAISTNGGSTYYADSVKGRFTISRDNAKNTVYLQMNSLKPEDTAVYYCNKVRKYSRHYDYWGQGTQVTVSS	high polyreactivity
QVQIVESGGGLVQAGGSLRLSCAASGYPFCRNAMGCYRQAPGKERELVAAISRSAGSTNYADSVKGRFTISRDNAMYTVYFQMNSLKPEDTAVYYGAADRYYRDPYWGNYWGQGTQVTVSS	high polyreactivity
QVQIVESGGGLVQAGGSLRLSCAASVIIFSKYGMGWYRQAPGKERELVAAISSSGGTTYYADSVKGRFTISRDNAKNTVYLQMNSLKPEDTAVYYCAATGRRRTYSEYEYWGQGTQVTVSS	high polyreactivity
QVQIVESGGGLVQAGGSLRLSCAAYGRIFVPYAMGWYRPAPGKERELVAAITWRGGSTYYAYSVKGRFTISRDNAKNTVYLQMNSMNPDDTGVYYCNSDEASAGFWFSHLQLGMDYWGQGTQVTVSS	low polyreactivity
QVQIVESGGGLVQAGGSLRLSCAPSGSNIDYNDMGRYRQAPGKEWELVAAISGRGTRTYYADSVKGRFTISRDNAKNTVYLQMNSLKPEDTAVYYCAASTRGRYWGRFGYWGQRTQVTVSS	high polyreactivity
QVQIVESGGGLVQAGGSLRLSCASSGSTFTHYAMGWYRQAPGKERELVAGISWGGSSTYYADSVKGRFTISRDNAKNTVYLQMNSLKPEDTAVYYCAAGRRGSYPGGYGYWGQGTQVTVSS	low polyreactivity
QVQIVESGGGLVQAGGSLRLSCASSGSTFVPNDMGSYRQAPWKERELVAAISRSGDDTYYADSVKGRFTISRDNAKNTVYFQMNSLIPEDTAVYYCNAAGRPFFLRPLRWELDYWGQGTQVTVSS	low polyreactivity
QVQIVESGGGLVQAGGSLRLSCGASGSTLGWYGMGWYRQAPGKERELVATISESGGSTYYADSVKGRFTISRDNAKNTVYLQMNSLKPEDTAVYYCAADDRGLISRRGYFYLSYDYWGQGTQVTVSS	low polyreactivity
QVQIVESGGGLVQAGGSLRLSCSASGNIFYKYAMGWFRQAPGKERELVAAITWRVVRTYYADSVKGRFTISRDNAKNTVYLQMNSLKPEDTAVYYCAALSRQSGDYWGQGTQLTVSS	high polyreactivity
QVQIVESGGGLVQAGGSLRLSCTASGRIFYRYAMGWYRQAPGKERELVAAIRYSGGRTYYADSVKGRFTISRDNAKNTVYLQMNSLKQEDTAVYYCAADGQWYYAPFRGGVYENDYWGQGTQVTVSS	low polyreactivity
QVQIVESGGGLVQAGGSLRLSSAAYGSTFAIYTMGWSRQAPGKERELVATISYSGGGTYYADSVKGRFTISRDNAKNTVYLQMNSLKPEDTAVYYCAAGRRTYYGTYYYWGQGTQVNVSS	high polyreactivity
QVQIVESGGGLVQAGGSLRLTCAASGFTLPIYAMGWYRQAPGKEREFVAAITASGDNTYYADSVKGRFTISRDNAKNTVYLQMNSLKPEDTAVYYCAAAHWWIVGYDYWGQGTQVTVSS	low polyreactivity
QVQIVESGGGLVQAGGSLRLTCAASGSIFGDYAMGWYRQASGKERELVASISESGGSTYYADSVKGRFTISRDNAKNTVYLQMISLKPEDTAVYYCNTDYDYGWWDLGEYEYWGHGTQVTVSS	low polyreactivity
QVQIVESGGGLVQAGGSLRLTCAASGSTFYDYAMGWYRQAPGKERDLVAAITSADSTNYADSVKGRFTISRDNAKNTVYLQMNSLKPEDTAVYYCGQGTQVTVSS	low polyreactivity
QVQIVESGGGLVQAGGSLRLTCAASGYIFKYYAMGWYRQAPGKERELVAAITIGGNTNYADSVKGRFTISRDNAKNTVYLQMNSLKPEDTAVYYCATGGYYSAIVYGGYDYWGQGTQVTVSS	low polyreactivity
